Source: the supplement of paper PMC7877785
± gives the uncertainty stated by the source.

Test: self-splicing fitness, log relative to wild type (ln ratio); higher = more splicing; Tetrahymena group I intron in knt gene, E. coli kanamycin selection, DiMSum; sequences stand for … in CUCUCU…GGAGGGAAAAGUUAUCAGGCAUGCACCUGGUAGCUAGUCUUUAAACCAAUAGAUUGCAUCGGUUUAAAAGGCAAGACCGUCAAAUUGCGGGAAAGGGGUCAACAGCCGUUCAGUACCAAGUCUCAGGGGAAACUUUGAGAUGGCCUUGCAAAGGGUAUGGUAAUAAGCUGACGGACAUGGUCCUAACCACGCAGCCAAGUCCUAAGUCAACAGAUCUUCUGUUGAUAUGGAUGCAGUUCACAGACUAAAUGUCGGUCGGGGAAGAUGUAUUCUUCUCAUAAGAUAUAGUCGGACCUCUCCUUAAUGGGAGCUAGCGGAUGAAGUGAUGCAACACUGGAGCCGCUGGGAACUAAUUUGUAUGCGAAAGUAUAUUGAUUAGUUUUGGAGUACUCGUGGUCG
Method in brief: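 The eight P1ex-region nucleotides of an intron in the knt kanamycin-resistance gene on pET-22b(+) were all randomised and the library put into E. coli BL21(DE3). Six replicate transformations were grown overnight at 37°C or 30°C on LB agar with or without 25 μg/mL kanamycin, together with 100 μg/mL carbenicillin, 50 μM IPTG and 0.2% rhamnose. Colonies were pooled and amplicon-sequenced on an Illumina HiSeq 2500. Fitness from DiMSum is the error-weighted combination of wild-type-normalised replicate fold changes, kanamycin over none.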

Sequence	self-splicing fitness (ln) (30 °C)	self-splicing fitness (ln) (37 °C)
UAUAAGCAAUAUUACGCACC	-1.82 ± 0.3	-1.42 ± 0.3
UAUAAGCAAUAUUACGCAGG	-2.31 ± 0.13	-0.616 ± 0.11
UAUAAGCAAUAUUACGCAUU	-2.15 ± 0.21	-0.414 ± 0.14
UAUAAGCAAUAUUACGCCAU	-1.19 ± 0.23	-2.11 ± 0.28
UAUAAGCAAUAUUACGCCGA	-1.53 ± 0.14	0.235 ± 0.14
UAUAAGCAAUAUUACGCUUG	-1.75 ± 0.15	-0.76 ± 0.14
UAUAAGCAAUAUUACGGCCU	-0.92 ± 0.16	-0.641 ± 0.23
UAUAAGCAAUAUUACGGGAG	-2.07 ± 0.11	-1.64 ± 0.12
UAUAAGCAAUAUUACGGGCA	-0.658 ± 0.11	0.213 ± 0.12
UAUAAGCAAUAUUACGGGGU	-2.93 ± 0.24	-2.66 ± 0.23
UAUAAGCAAUAUUACGGGUG	-0.65 ± 0.074	0.0941 ± 0.12
UAUAAGCAAUAUUACGUAGC	–	-2.05 ± 0.36
UAUAAGCAAUAUUACGUAGG	-3 ± 0.27	-0.609 ± 0.27
UAUAAGCAAUAUUACGUAGU	-3.65 ± 0.25	-2.07 ± 0.25
UAUAAGCAAUAUUACGUAUC	-1.88 ± 0.17	-2.03 ± 0.19
UAUAAGCAAUAUUACGUUAC	-3.45 ± 0.21	-2.46 ± 0.23
UAUAAGCAAUAUUACGUUCG	-0.846 ± 0.12	0.0904 ± 0.17
UAUAAGCAAUAUUACGUUUG	-1.84 ± 0.11	-1.61 ± 0.14
UAUCAGCAAUAUUACGAACA	-0.0668 ± 0.089	-0.206 ± 0.096
UAUCAGCAAUAUUACGACAC	-2.03 ± 0.2	0.634 ± 0.23
UAUCAGCAAUAUUACGACCG	-0.12 ± 0.081	0.738 ± 0.11
UAUCAGCAAUAUUACGAGCA	-0.827 ± 0.084	-0.124 ± 0.11
UAUCAGCAAUAUUACGAUCA	-0.115 ± 0.11	0.19 ± 0.14
UAUCAGCAAUAUUACGAUCC	-1.32 ± 0.11	0.203 ± 0.13
UAUCAGCAAUAUUACGAUGA	-0.667 ± 0.075	0.19 ± 0.099

Sequence	self-splicing fitness (ln) (30 °C)	self-splicing fitness (ln) (37 °C)
UAUCAGCAAUAUUACGAUGC	-3.83 ± 0.37	-1.82 ± 0.22
UAUCAGCAAUAUUACGAUUC	-0.925 ± 0.081	-0.0952 ± 0.092
UAUCAGCAAUAUUACGCACA	-0.305 ± 0.087	0.32 ± 0.14
UAUCAGCAAUAUUACGCAUC	-1.87 ± 0.085	-0.409 ± 0.12
UAUCAGCAAUAUUACGCCGC	-1.58 ± 0.19	-2.02 ± 0.27
UAUCAGCAAUAUUACGGACA	0.27 ± 0.15	-0.681 ± 0.17
UAUCAGCAAUAUUACGGCGA	-0.382 ± 0.1	1.02 ± 0.13
UAUCAGCAAUAUUACGGCUG	-3.56 ± 0.2	-1.78 ± 0.15
UAUCAGCAAUAUUACGGGAG	-1.83 ± 0.087	-1.17 ± 0.098
UAUCAGCAAUAUUACGGGUC	-2.27 ± 0.12	-1.3 ± 0.12
UAUCAGCAAUAUUACGGGUG	-0.736 ± 0.044	-0.102 ± 0.064
UAUCAGCAAUAUUACGGUCC	-2.18 ± 0.13	-0.955 ± 0.19
UAUCAGCAAUAUUACGGUGC	-3.27 ± 0.19	-1.14 ± 0.14
UAUCAGCAAUAUUACGUCCC	-2.83 ± 0.34	0.683 ± 0.26
UAUCAGCAAUAUUACGUCUC	-2.46 ± 0.24	-1.13 ± 0.24
UAUCAGCAAUAUUACGUCUU	-1.65 ± 0.082	-0.155 ± 0.091
UAUCAGCAAUAUUACGUGUA	-0.198 ± 0.069	0.204 ± 0.079
UAUCAGCAAUAUUACGUUCA	-0.267 ± 0.11	0.345 ± 0.15
UAUCAGCAAUAUUACGUUCG	-0.844 ± 0.085	0.113 ± 0.11
UAUCAGCAAUAUUACGUUCU	-2.22 ± 0.11	-1.03 ± 0.13
UAUCAGCAAUAUUACGUUGA	-2.15 ± 0.18	-1.95 ± 0.18
UAUCAGCAAUAUUACGUUUG	-1.4 ± 0.068	-0.266 ± 0.092
UAUGAGCAAUAUUACGAACA	-2.47 ± 0.24	-0.662 ± 0.14
UAUGAGCAAUAUUACGAUCC	–	-3.06 ± 0.47
UAUGAGCAAUAUUACGAUUA	-0.445 ± 0.094	0.467 ± 0.093

Sequence	self-splicing fitness (ln) (30 °C)	self-splicing fitness (ln) (37 °C)
UAUGAGCAAUAUUACGAUUG	-1.94 ± 0.17	-1.11 ± 0.2
UAUGAGCAAUAUUACGCCCA	-2.3 ± 0.27	0.171 ± 0.49
UAUGAGCAAUAUUACGCUCG	-2.09 ± 0.21	-2.2 ± 0.35
UAUGAGCAAUAUUACGGAAA	-1.13 ± 0.49	–
UAUGAGCAAUAUUACGGAUA	-2 ± 0.23	0.104 ± 0.21
UAUGAGCAAUAUUACGGCAG	-1.5 ± 0.25	-0.674 ± 0.27
UAUGAGCAAUAUUACGGCAU	-2.94 ± 0.27	-2.05 ± 0.41
UAUGAGCAAUAUUACGGGAA	–	-2.7 ± 0.41
UAUGAGCAAUAUUACGGGAC	–	-1.11 ± 0.17
UAUGAGCAAUAUUACGGGAU	-3.06 ± 0.21	-2.35 ± 0.29
UAUGAGCAAUAUUACGUACC	-2.28 ± 0.46	-1.86 ± 0.43
UAUGAGCAAUAUUACGUAGG	-4.19 ± 0.34	-2.41 ± 0.21
UAUGAGCAAUAUUACGUCGC	-4.2 ± 0.39	-2.45 ± 0.39
UAUGAGCAAUAUUACGUGAU	-3.04 ± 0.15	-2.76 ± 0.25
UAUGAGCAAUAUUACGUGCC	-4.14 ± 0.46	-2.28 ± 0.31
UAUGAGCAAUAUUACGUUGG	-4.07 ± 0.3	-2.24 ± 0.22
UAUUAGCAAUAUUACGACGU	-1.02 ± 0.2	-0.561 ± 0.17
UAUUAGCAAUAUUACGACUC	-2.24 ± 0.21	-1.08 ± 0.3
UAUUAGCAAUAUUACGAGAU	–	-2.01 ± 0.34
UAUUAGCAAUAUUACGAUCU	-0.883 ± 0.12	0.167 ± 0.17
UAUUAGCAAUAUUACGCGGA	-2.1 ± 0.2	-1.08 ± 0.13
UAUUAGCAAUAUUACGGACG	-0.257 ± 0.11	0.171 ± 0.12
UAUUAGCAAUAUUACGGAGA	-2.09 ± 0.25	-2.18 ± 0.32
UAUUAGCAAUAUUACGGCUG	-0.432 ± 0.079	0.0834 ± 0.13
UAUUAGCAAUAUUACGGUUC	-3.84 ± 0.39	-3 ± 0.29

Sequence	self-splicing fitness (ln) (30 °C)	self-splicing fitness (ln) (37 °C)
UAUUAGCAAUAUUACGUAAU	-3.24 ± 0.26	-1.93 ± 0.24
UAUUAGCAAUAUUACGUACG	-0.0813 ± 0.071	-0.262 ± 0.09
UCAAAGCAAUAUUACGAGCC	-2.27 ± 0.23	–
UCAAAGCAAUAUUACGAUAA	-1.43 ± 0.11	-0.335 ± 0.13
UCAAAGCAAUAUUACGAUGU	-1.09 ± 0.074	-0.341 ± 0.081
UCAAAGCAAUAUUACGAUUG	-2.46 ± 0.14	-0.73 ± 0.11
UCAAAGCAAUAUUACGCACG	-1.18 ± 0.11	-0.632 ± 0.16
UCAAAGCAAUAUUACGCAGU	-3.16 ± 0.19	-3.42 ± 0.31
UCAAAGCAAUAUUACGCCGA	-1.49 ± 0.15	-0.381 ± 0.12
UCAAAGCAAUAUUACGCGGC	-3.92 ± 0.3	-2.59 ± 0.23
UCAAAGCAAUAUUACGCUAA	-3.48 ± 0.25	-2.87 ± 0.27
UCAAAGCAAUAUUACGCUUG	-2.27 ± 0.14	-2.58 ± 0.26
UCAAAGCAAUAUUACGGCCA	-0.546 ± 0.13	-0.278 ± 0.11
UCAAAGCAAUAUUACGGUGG	-1.79 ± 0.058	-1.05 ± 0.083
UCAAAGCAAUAUUACGUACG	-0.29 ± 0.067	0.0719 ± 0.077
UCAAAGCAAUAUUACGUACU	-3.16 ± 0.45	-2.28 ± 0.37
UCAAAGCAAUAUUACGUGCG	-1.13 ± 0.045	-0.496 ± 0.064
UCACAGCAAUAUUACGACGG	-0.234 ± 0.066	0.353 ± 0.086
UCACAGCAAUAUUACGACUU	-3.28 ± 0.2	-1.65 ± 0.12
UCACAGCAAUAUUACGAGAG	-3.55 ± 0.16	-2.63 ± 0.19
UCACAGCAAUAUUACGAGCG	-0.409 ± 0.064	-0.305 ± 0.093
UCACAGCAAUAUUACGCUAC	-3.12 ± 0.19	-2.77 ± 0.21
